# Results reported in paper PMC3577887, “Multiple Consequences of a Single Amino Acid Pathogenic RTK Mutation: The A391E Mutation in FGFR3” (PLoS ONE, 2013).
# B1: FGFR3 carrying the A391E mutation (Crouzon syndrome with Acanthosis Nigricans) (receptor)
# chain: ESLGTEQRVVGRAAEVPGPEPGQQEQLVFGSGDAVELSCPPPGGGPMGPTVWVKDGTGLVPSERVLVGPQRLQVLNASHEDSGAYSCRQRLTQRVLCHFSVRVTDAPSSGDDEDGEDEAEDTGVDTGAPYWTRPERMDKKLLAVPAANTVRFRCPAAGNPTPSISWLKNGREFRGEHRIGGIKLRHQQWSLVMESVVPSDRGNYTCVVENKFGSIRQTYTLDVLERSPHRPILQAGLPANQTAVLGSDVEFHCKVYSDAQPHIQWLKHVEVNGSKVGPDGTPYVTVLKTAGANTTDKELEVLSLHNVTFEDAGEYTCLAGNSIGFSHHSAWLVVLPAEEELVEADEAGSVYAGILSYGVGFFLFILVVEAVTLCRLRSPPKKGLGSPTVHKISRFPLKRQVSLESNASMSSNTPLVRIARLSSGEGPTLANVSELELPADPKWELSRARLTLGKPLGEGCFGQVVMAEAIGIDKDRAAKPVTVAVKMLKDDATDKDLSDLVSEMEMMKMIGKHKNIINLLGACTQGGPLYVLVEYAAKGNLREFLRARRPPGLDYSFDTCKPPEEQLTFKDLVSCAYQVARGMEYLASQKCIHRDLAARNVLVTEDNVMKIADFGLARDVHNLDYYKKTTNGRLPVKWMAPEALFDRVYTHQSDVWSFGVLLWEIFTLGGSPYPGIPVEELFKLLKEGHRMDKPANCTHDLYMIMRECWHAAPSQRPTFKQLVEDLDRVLTVTSTDEYLDLSAPFEQYSPGGQDTPSSSSSGDDSVFAHDLLPPAPPSSGGSRT
# notes: fibroblast growth factor receptor 3, human, with the pathogenic transmembrane-domain mutation A391E; full-length receptor; the mature 130 kDa form in the plasma membrane was quantified; Made from the FGFR3/WT plasmid by site-directed mutagenesis; the mutation occurs in patients; also called FGFR3/A391E; A391E mutant; source: HEK 293 T, transiently transfected (pcDNA 3.1+, Fugene 6), on cells
# Biological target: the molecule itself
# Assay: cross-linking; 2 mM BS3 (membrane-impermeable) on starved HEK 293 T cells transfected with 1 µg DNA, room temperature, no ligand; Western blot with anti-FGFR3; cross-linked fraction SD/(SM+SD) with the 130 kDa monomer band
protein,measurement,value
B1,stoichiometry N,2
